Reference: patent publication US20100203055A1, “HAIR REGROWTH PROMOTER” (priority 2007, published 2010)
“Also recorded” adds a separate entry of the source. Each block holds one molecule with its values, some of them ahead of it.

What was measured:
hair follicle growth = assay: Hair growth inhibiting effect by continuous administration of FGF18 in anagen phase-induced C3H/HeN mice; format: in vivo, mouse
Experimental: In order to examine the effect of FGF18 in vivo on hair follicle growth, FGF18 protein dissolved in phosphate buffered physiological saline (PBS) was administered to hair follicle anagen phase-induced mice. Briefly, dorsal hair of 50 day-old C3H/HeN male mice in telogen phase was depilated gently with fingers to thereby induce the start of hair follicle anagen phase. Then, FGF18 solution was injected into the dorsal skin subcutaneously from the vicinity of the tail (1 μg of FGF18 per mouse). The mice were maintained on a diet and water ad libitum. Starting from this day, FGF18 solution was injected subcutaneously into the dorsal skin every day at about the same time for consecutive 8 days. The control group received injection of PBS instead of FGF18. Nine days after the initial injection, the mice were euthanized under anesthesia. Full thickness skin samples were excised from the dorsal part and embedded in paraffin. The thus embedded skin samples were sliced into 4 μm thick sections with a microtome, stained with hematoxylin and observed under microscope.

[1] = test system: human dermal papilla cells (HFDP); assay: Effect of FGF18 on gene expression of hair follicle growth promoting factors in dermal papilla cells; format: cell-based; conditions: dermal papilla cells cultured 24 hr with FGF18, then medium deprived of FGF18, versus continued FGF18-containing medium
Experimental: Cultured human dermal papilla cells (HFDP; from adult human scalp; Toyobo) were subcultured in HFDP growth medium (20% fetal bovine serum-containing basal medium for dermal papilla cell; Toyobo) and used in experiments within two passages. The cells were treated with trypsin and seeded in collagen-coated dishes (Sumilon; 6 cm in diameter) at 4×10^5 cells/dish. The cells were maintained at 37° C. in HFDP medium. On the next day, the medium was exchanged for HEK medium (EpiLife™, 0.06 mM CaCl2, 10 μg/ml insulin, 0.1 ng/ml hEGF, 0.5 μg/ml hydrocortisone, 0.4% BPE), and then FGF18 was added to the medium. After the cells were cultured for 24 hr, the medium was exchanged for FGF18 free medium in the test sample group (“-FGF18”). The control group (“Control”) was cultured continuously in the FGF18-containing medium. Subsequently, the cells were harvested and the mRNA was extracted and purified. The expression levels of mRNA from VEGF (known as a hair follicle growth promoting factor) and noggin (known as a hair growth inhibiting factor) contained in the resultant mRNA were analyzed.

hair follicles = conditions: single administration to mouse skin in telogen phase; Non-Patent Document 19 and Patent Document 2; cited from earlier work
FGFR3c = assay: Inhibition of FGF18-stimulated DNA synthesis (cell growth) in FGFR3c/BaF3 cells by FGF18 partial peptides; format: cell-based, mouse
From the text: (§1) According to teachings disclosed in literature, the FGF receptor genes FGFR1c, FGFR2c, FGFR3c and FGFR4 were respectively introduced by means of genetic engineering into Ba/F3 cell strain (obtained from RIKEN BRC) which is mouse IL-3-dependent proB cell to thereby prepare cells on whose surface FGFR was compulsively expressed (Ornitz, D M., Xu, J., Colvin, J S., McEwen, D G, MacArthur, C A., Coulier, E, Gao, G. and Goldfarb, M., 1996. Receptor specificity of the fibroblast growth factor family. J. Biol. Chem. 271(25):15292-15297; Yoneda, A., Asada, M., Oda, Y, Suzuki, M. and Imamura, T., 2000. Engineering of an FGF-proteoglycan fusion protein with heparin-independent, mitogenic activity. Nat. Biotec. 18(6):641-644).
(§2) Using these cells, the antagonist activity of test samples [whether or not test samples inhibit the DNA synthesis of FGF18-stimulated cell (this is taken as 100%)] was examined while stimulating each receptor with 30 ng/ml FGF18, in the co-presence of each partial peptide of FGF18 at 1 μg/ml (FIG. 3A) or at 100 ng/ml (FIG. 3B). Briefly, an activity that inhibits the cell growth stimulating effect of FGF18 was analyzed. Correspondence between individual columns and test samples is as described below.

FGFR4 = target: T1, FGFR4 (Homo sapiens, UniProt P22455); assay: Inhibition of FGF18-stimulated DNA synthesis (cell growth) in FGFR4/BaF3 cells by FGF18 partial peptides; format: cell-based, mouse; conditions: test sample 1 μg/ml, 30 ng/ml FGF18, FIG. 3A
T1 construct: expressed in transfected cells; host or cells: Ba/F3 (mouse IL-3-dependent proB cell); R4/Ba/F3 cells under G-418
T1 sequence (P22455 22-802, species assumed): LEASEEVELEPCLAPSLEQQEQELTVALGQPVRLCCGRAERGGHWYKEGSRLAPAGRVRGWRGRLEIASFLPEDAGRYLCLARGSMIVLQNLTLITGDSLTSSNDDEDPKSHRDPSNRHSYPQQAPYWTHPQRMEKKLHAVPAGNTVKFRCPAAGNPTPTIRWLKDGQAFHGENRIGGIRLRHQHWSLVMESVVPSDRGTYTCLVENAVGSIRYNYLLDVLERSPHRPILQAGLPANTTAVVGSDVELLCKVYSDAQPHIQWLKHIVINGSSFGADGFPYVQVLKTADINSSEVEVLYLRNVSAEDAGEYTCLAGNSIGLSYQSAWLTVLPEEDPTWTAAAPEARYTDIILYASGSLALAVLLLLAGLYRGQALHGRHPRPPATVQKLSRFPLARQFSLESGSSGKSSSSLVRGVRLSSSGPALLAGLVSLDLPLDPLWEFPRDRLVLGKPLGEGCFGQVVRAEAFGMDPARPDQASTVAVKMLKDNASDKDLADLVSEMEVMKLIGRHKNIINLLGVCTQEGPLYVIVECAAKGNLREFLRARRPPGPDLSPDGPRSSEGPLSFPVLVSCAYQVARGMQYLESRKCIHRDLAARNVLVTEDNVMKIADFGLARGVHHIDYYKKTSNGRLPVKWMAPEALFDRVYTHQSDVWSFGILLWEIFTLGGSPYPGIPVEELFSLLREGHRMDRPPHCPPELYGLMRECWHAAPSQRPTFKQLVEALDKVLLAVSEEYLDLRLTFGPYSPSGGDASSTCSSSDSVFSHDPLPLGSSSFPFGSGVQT
From the text: as §1, §2

[2] = test sample 100 ng/ml, 30 ng/ml FGF18, FIG. 3B
[3] = test sample 1 μg/ml, 30 ng/ml FGF18, FIG. 3A

B1: FGF18: fibroblast growth factor 18 protein; secreted polypeptide of 181 amino acids; commercial FGF18 (PeproTech) used (protein)
chain: EENVDFRIHVENQTRARDDVSRKQLRLYQLYSRTSGKHIQVLGRRISARGEDGDKYAQLLVETDTFGSQVRIKGKETEFYLCMNRKGKLVGKPDGTSKECVFIEKVLENNYTALMSAKYSGWYVGFTKKGRPRKGPKTRENQQDVHFMKRYPKGQPELQKPFKYTTVTKRSRRIRPTHPA
hair growth / hair follicle growth (hair follicle growth; 1 μg FGF18 per mouse subcutaneously once a day for 8 days after depilation, observed at day 9, versus PBS): hair growth is strongly inhibited; also recorded: hair growth was markedly inhibited
growth of hair follicles after stopping FGF18 administration (hair follicle growth; continuous administration under the same conditions, then stopped and mice raised thereafter): growth of hair follicles occurred
expression level of VEGF mRNA [1]: 4.8 fold
expression level of noggin mRNA [1]: 3.5 fold
hair regrowth after single administration (hair follicles): induces hair regrowth

B2: d16: partial peptide of mouse FGF18, 16 amino acids deleted from N-terminus; SEQ ID NO: 17 (protein)
chain: MARDDVSRKQLRLYQLYSRTSGKHIQVLGRRISARGEDGDKYAQLLVETDTFGSQVRIKGKETEFYLCMNRKGKLVGKPDGTSKECVFIEKVLENNYTALMSAKYSGWYVGFTKKGRPRKGPKTRENQQDVHFMKRYPKGQAELQKPFKYTTVTKRSRRIRPTHPG
modifications: truncation mutant polypeptide of mouse FGF18(d16)
inhibition of the activity of FGF18 on FGFR3c/BaF3 cells (FGFR3c; [2]): strongly inhibit
inhibition of the activity of FGF18 on FGFR3c/BaF3 cells (FGFR3c; [3]): strongly inhibit

inhibition of the activity of FGF18 on FGFR4/BaF3 cells (FGFR4): strongly inhibit
B3: d95: partial peptide of mouse FGF18, 95 amino acids deleted from N-terminus; SEQ ID NO: 24 (protein)
chain: MGTSKECVFIEKVLENNYTALMSAKYSGWYVGFTKKGRPRKGPKTRENQQDVHFMKRYPKGQAELQKPFKYTTVTKRSRRIRPTHPG
modifications: truncation mutant polypeptide of mouse FGF18(d95)
inhibition of the activity of FGF18 on FGFR3c/BaF3 cells (FGFR3c; [2]): strongly inhibit
inhibition of the activity of FGF18 on FGFR3c/BaF3 cells (FGFR3c; [3]): strongly inhibit

inhibition of the activity of FGF18 on FGFR4/BaF3 cells (FGFR4): strongly inhibit
B4: d22: partial peptide of mouse FGF18, 22 amino acids deleted from N-terminus; SEQ ID NO: 19 (protein)
chain: MRKQLRLYQLYSRTSGKHIQVLGRRISARGEDGDKYAQLLVETDTFGSQVRIKGKETEFYLCMNRKGKLVGKPDGTSKECVFIEKVLENNYTALMSAKYSGWYVGFTKKGRPRKGPKTRENQQDVHFMKRYPKGQAELQKPFKYTTVTKRSRRIRPTHPG
modifications: truncation mutant polypeptide of mouse FGF18(d22)
inhibition of the activity of FGF18 on FGFR3c/BaF3 cells (FGFR3c; [3]): strongly inhibit

inhibition of the activity of FGF18 on FGFR4/BaF3 cells (FGFR4): strongly inhibit
B5: d77: partial peptide of mouse FGF18, 77 amino acids deleted from N-terminus; SEQ ID NO: 23 (protein)
chain: MTEFYLCMNRKGKLVGKPDGTSKECVFIEKVLENNYTALMSAKYSGWYVGFTKKGRPRKGPKTRENQQDVHFMKRYPKGQAELQKPFKYTTVTKRSRRIRPTHPG
modifications: truncation mutant polypeptide of mouse FGF18(d77)
inhibition of the activity of FGF18 on FGFR3c/BaF3 cells (FGFR3c; [3]): strongly inhibit

inhibition of the activity of FGF18 on FGFR4/BaF3 cells (FGFR4): strongly inhibit
B6: d48: partial peptide of mouse FGF18, 48 amino acids deleted from N-terminus; SEQ ID NO: 21 (protein)
chain: MARGEDGDKYAQLLVETDTFGSQVRIKGKETEFYLCMNRKGKLVGKPDGTSKECVFIEKVLENNYTALMSAKYSGWYVGFTKKGRPRKGPKTRENQQDVHFMKRYPKGQAELQKPFKYTTVTKRSRRIRPTHPG
modifications: truncation mutant polypeptide of mouse FGF18(d48)
inhibition of the activity of FGF18 on FGFR3c/BaF3 cells (FGFR3c; [3]): strongly inhibit

B7: d37: partial peptide of mouse FGF18, 37 amino acids deleted from N-terminus; SEQ ID NO: 20 (protein)
chain: MKHIQVLGRRISARGEDGDKYAQLLVETDTFGSQVRIKGKETEFYLCMNRKGKLVGKPDGTSKECVFIEKVLENNYTALMSAKYSGWYVGFTKKGRPRKGPKTRENQQDVHFMKRYPKGQAELQKPFKYTTVTKRSRRIRPTHPG
modifications: truncation mutant polypeptide of mouse FGF18(d37)
inhibition of the activity of FGF18 on FGFR3c/BaF3 cells (FGFR3c; [3]): strongly inhibit
